Measurements taken from patent US7919526B2, “Structured triglycerides and emulsions comprising same” (HTL High-Tech Lipids Ltd., priority 2005, dated 2011).

Legend:
Assay type in all cases: biochemical
[1] = acidolysis activity of lipases using MCT and EPA; settings: for Conversion % (24 h): MCT (1 gr), EPA (0.6 gr), 500 mg enzyme preparation, 50° C., solvent-free; for efficiency of incorporation of EPA into MCT, in words: summary of Table 11
Experimental: (§1) The acidolysis activity of crude enzymes and enzymes adapted for synthetic reactions was assayed by adding an enzyme preparation (500 mg) into a 10 ml reaction solution containing MCT and a free fatty acid where the molar ratio between both substrates was 1:1. […] Samples (0.1 ml) were taken from the reaction mixture and mixed with 10 ml solvent comprised of acetone-dichloromethane at a ratio of 90:10. The samples were filtered through a Millipore filter (pore size 0.45 μm) and then injected to the HPLC.
(§2) The reaction progress was followed by analyzing the triglyceride composition in the reaction medium before and after the enzymatic reaction using an HPLC equipped with an ELSD (Evaporative light Scattering Detector). The HPLC was equipped with a LiChrosorb CH-18 Super (250×4 mm, 5 μm, MERCK). The HPLC running conditions were as follows: mobile phase A, Acetonitrile/Dichloromethane/Acetone (80/15/5); mobile phase B: […] (20/60/20). The flow rate was 1 ml/min and the gradient was 0 to 100% B for 30 min.
(§3) The substrate conversion was calculated as follows: Conversion %=100×(Sum of area of the 4 peaks representing the MCT at time zero)−([…])per Sum of area of the 4 peaks representing the MCT at time zero. The MCT conversion (%) was used as an indicative parameter for the efficiency of enzyme activity to obtain the desired product. Results
(§4) Tables 1-12 show the acidolysis activity of various lipases, which were screened for their ability to catalyze the reaction between MCT and free fatty acids in a solvent-free system according to the enzymatically catalyzed reaction presented in FIG. 1. All lipases were used in their crude form as supplied by the manufacturer (Sigma) or immobilized on an insoluble matrix. Immobilized lipases were activated before their use in the acidolysis reaction containing MCT and a long-chain fatty acid by pretreatment with a biphase system containing 50% triglyceride oil such as olive oil, soy oil and the like and 50% water. This pretreatment lead to the activation of the immobilized enzymes for synthetic applications.
(§5) A typical enzyme activation and immobilization procedure used in this example is as follows: 1 g of a crude lipase preparation was dissolved in a 1 L of phosphate buffer solution of an appropriate pH according to the recommendation of the enzyme's manufacturer. 10 g of support matrix (silica, celite, an ion-exchange resin such as DUOLITE® A56, DUOLITE® A7, DUOLITE® XAD761, or Amberlite™ XAD16) were added into the stirred enzyme solution. The slurry was shaken for 8 hours at a temperature of 10° C. Hundred ml of cold acetone was optionally added into the stirred slurry in order to enhance the enzyme immobilization on the matrix surface. The immobilized enzyme was filtered of from the mixture and then freeze-dried or used wet for the following step. One g of freeze-dried immobilized lipase (water content of less than 2 weight %) or wet immobilized lipase (water content of approx. 20%) was added into a biphase system comprised of 5 g olive oil and 2 g buffer solution of pH7 at room temperature. The mixture was stirred for 10 min. The immobilized lipases was filtered of from the mixture, washed with cold acetone, dried in a desiccator and then used for the acidolysis reaction between MCT and a fatty acyl donor.
(§6) Reaction conditions: MCT (1 gr), caproic acid (0.23 gr), and 500 mg enzyme preparation. The reaction mixture was shaken and thermostated at 50° C. for 16 h. […]

[2] = acidolysis activity of lipases using MCT and stearic acid; settings: MCT (1 gr), stearic acid (0.56 gr), 500 mg enzyme preparation, 50° C., solvent-free
Experimental: (§7) The acidolysis activity of crude enzymes and enzymes adapted for synthetic reactions was assayed by adding an enzyme preparation (500 mg) into a 10 ml reaction solution containing MCT and a free fatty acid where the molar ratio between both substrates was 1:1. The reaction mixture was shaken for 16 hours at a temperature of 50° C. Samples (0.1 ml) were taken from the reaction mixture and mixed with 10 ml solvent comprised of acetone-dichloromethane at a ratio of 90:10. The samples were filtered through a Millipore filter (pore size 0.45 μm) and then injected to the HPLC.
(§8) The reaction progress was followed by analyzing the triglyceride composition in the reaction medium before and after the enzymatic reaction using an HPLC equipped with an ELSD (Evaporative light Scattering Detector). The HPLC was equipped with a LiChrosorb CH-18 Super (250×4 mm, 5 μm, MERCK). The HPLC running conditions were as follows: mobile phase A, Acetonitrile/Dichloromethane/Acetone (80/15/5); mobile phase B: Acetone/Dichloromethane/Acetone (20/60/20). The flow rate was 1 ml/min and the gradient was 0 to 100% B for 30 min.
(§9) The substrate conversion was calculated as follows: Conversion %=100×(Sum of area of the 4 peaks representing the MCT at time zero)−(Sum of area of the 4 peaks representing the MCT after 16 h reaction time)per Sum of area of the 4 peaks representing the MCT at time zero. The MCT conversion (%) was used as an indicative parameter for the efficiency of enzyme activity to obtain the desired product.
All lipases were used in their crude form as supplied by the manufacturer (Sigma) or immobilized on an insoluble matrix. Immobilized lipases were activated before their use in the acidolysis reaction containing MCT and a long-chain fatty acid by pretreatment with a biphase system containing 50% triglyceride oil such as olive oil, soy oil and the like and 50% water. […]

[3] = acidolysis activity of lipases using MCT and caproic acid; settings: for Conversion % (24 h): MCT (1 gr), caproic acid (0.23 gr), 500 mg enzyme preparation, 50° C., solvent-free; for acidolysis activity in words, Caproic acid and MCT: summary of Table 1
Experimental: as §7, §8, §9

[4] = acidolysis activity of lipases using MCT and palmitic acid; settings: MCT (1 gr), palmitic acid (0.51 gr), 500 mg enzyme preparation, 50° C., solvent-free
Experimental: as §1, §2, §3
as §4, with “applications. […]” for “applications.”

[5] = acidolysis activity of lipases using MCT and DHA; settings: MCT (1 gr), DHA (0.65 gr), 500 mg enzyme preparation, 50° C., solvent-free
Experimental: as §1, §2, §3
as §4, with “applications. […]” for “applications.”

[6] = acidolysis activity of lipases using MCT and lauric acid; settings: MCT (1 gr), lauric acid (0.4 gr), 500 mg enzyme preparation, 50° C., solvent-free
Experimental: as §7, §8, §9
Reaction conditions as described in Table 1, with one modification, namely lauric acid (0.4 gr) was used as the fatty acid.

[7] = acidolysis activity of lipases using MCT and oleic acid; settings: MCT (1 gr), oleic acid (0.56 gr), 500 mg enzyme preparation, 50° C., solvent-free
Experimental: as §7, §8, §9
(§10) All lipases were used in their crude form as supplied by the manufacturer (Sigma) or immobilized on an insoluble matrix. Immobilized lipases were activated before their use in the acidolysis reaction containing MCT and a long-chain fatty acid by pretreatment with a biphase system containing 50% triglyceride oil such as olive oil, soy oil and the like and 50% water. This pretreatment lead to the activation of the immobilized enzymes for synthetic applications. […]

[8] = acidolysis activity of lipases using MCT and arachidonic acid; settings: for Conversion % (24 h): MCT (1 gr), arachidonic acid (0.6 gr), 500 mg enzyme preparation, 50° C., solvent-free
Experimental: as §1, §2, §3, §4
A typical enzyme activation and immobilization procedure used in this example is as follows: 1 g of a crude lipase preparation was dissolved in a 1 L of phosphate buffer solution of an appropriate pH according to the recommendation of the enzyme's manufacturer. 10 g of support matrix (silica, celite, an ion-exchange resin such as DUOLITE® A56, DUOLITE® A7, DUOLITE® XAD761, or Amberlite™ XAD16) were added into the stirred enzyme solution. The slurry was shaken for 8 hours at a temperature of 10° C. Hundred ml of cold acetone was optionally added into the stirred slurry in order to enhance the enzyme immobilization on the matrix surface. […]

[9] = acidolysis activity of lipases using MCT and alpha-linolenic acid; settings: MCT (1 gr), alpha-linolenic acid (0.55 gr), 500 mg enzyme preparation, 50° C., solvent-free
Experimental: as §7, §8, §9, §10

[10] = acidolysis activity of lipases using MCT and caprylic acid; settings: for Conversion % (24 h): MCT (1 gr), caprylic acid (0.28 gr), 500 mg enzyme preparation, 50° C., solvent-free; for acidolysis activity in words, Caprylic acid and MCT: summary of Table 2
Experimental: as §1, §2, §3, §4, §5, §6

[11] = acidolysis activity of lipases using MCT and linoleic acid; settings: MCT (1 gr), linoleic acid (0.55 gr), 500 mg enzyme preparation, 50° C., solvent-free
Experimental: as §1, §2, §3
as §4, with “applications. […]” for “applications.”

[12] = acidolysis activity of lipases using MCT and capric acid; settings: MCT (1 gr), capric acid (0.34 gr), 500 mg enzyme preparation, 50° C., solvent-free
Experimental: as §1, §2, §3
as §4, with “applications. […]” for “applications.”

Row | Molecule | Conversion % (24 h) [1] [%] | Conversion % (24 h) [2] [%] | Conversion % (24 h) [3] [%] | Conversion % [4] [%] | Conversion % (24 h) [5] [%] | Conversion % (24 h) [6] [%] | Conversion % (24 h) [7] [%] | Conversion % (24 h) [8] [%] | Conversion % (24 h) [9] [%] | Conversion % (24 h) [10] [%] | Conversion % [11] [%] | Conversion % [12] [%] | efficiency of incorporation of EPA into MCT, in words [1] | acidolysis activity in words, Caproic acid and MCT [3] | acidolysis activity in words, Caprylic acid and MCT [10] | efficiency of incorporation of ARA into MCT, in words ([8]; summary of Table 10)
1 | Porcine pancreas lipase: lipase from porcine pancreas (Sigma), crude or immobilized (protein, UniProt P00591 1-450, looked up, crude or immobilized) Pancreatic triacylglycerol …: SEVCFPRLGCFSDDAPWAGIVQRPLKILPWSPKDVDTRFLLYTNQNQNNYQELVADPSTITNSNFRMDRKTRFIIHGFIDKGEEDWLSNICKNLFKVESVNCICVDWKGGSRTGYTQASQNIRIVGAEVAYFVEVLKSSLGYSPSNVHVIGHSLGSHAAGEAGRRTNGTIERITGLDPAEPCFQGTPELVRLDPSDAKFVDVIHTDAAPIIPNLGFGMSQTVGHLDFFPNGGKQMPGCQKNILSQIVDIDGIWEGTRDFVACNHLRSYKYYADSILNPDGFAGFPCDSYNVFTANKCFPCPSEGCPQMGHYADRFPGKTNGVSQVFYLNTGDASNFARWRYKVSVTLSGKKVTGHILVSLFGNEGNSRQYEIYKGTLQPDNTHSDEFDSDVEVGDLQKVKFIWYNNNVINPTLPRVGASKITVERNDGKVYDFCSQETVREEVLLTLNPC | 3 | 5 | 6 | 1 | 5 | 6 | 4 | 2 | 6 | 5 | 5 | 5 |  |  |  | 
2 | Mucor miehei: lipase of Mucor miehei origin (Sigma), crude or immobilized (protein, UniProt P19515 95-363, looked up, crude or immobilized) Lipase: SIDGGIRAATSQEINELTYYTTLSANSYCRTVIPGATWDCIHCDATEDLKIIKTWSTLIYDTNAMVARGDSEKTIYIVFRGSSSIRNWIADLTFVPVSYPPVSGTKVHKGFLDSYGEVQNELVATVLDQFKQYPSYKVAVTGHSLGGATALLCALDLYQREEGLSSSNLFLYTQGQPRVGDPAFANYVVSTGIPYRRTVNERDIVPHLPPAAFGFLHAGEEYWITDNSPETVQVCTSDLETSDCSNSIVPFTSVLDHLSYFGINTGLCT | 25 | 42 | 35 | 41 | 27 | 38 | 40 | 3 | 31 | 42 | 41 | 39 | the most efficient enzymes | preferred sources | reasonable acidolysis activity | 
3 | Rhizomucor miehei: lipase of Rhizomucor miehei origin (Sigma), crude or immobilized (protein, UniProt P19515 95-363, looked up, crude or immobilized) Lipase: SIDGGIRAATSQEINELTYYTTLSANSYCRTVIPGATWDCIHCDATEDLKIIKTWSTLIYDTNAMVARGDSEKTIYIVFRGSSSIRNWIADLTFVPVSYPPVSGTKVHKGFLDSYGEVQNELVATVLDQFKQYPSYKVAVTGHSLGGATALLCALDLYQREEGLSSSNLFLYTQGQPRVGDPAFANYVVSTGIPYRRTVNERDIVPHLPPAAFGFLHAGEEYWITDNSPETVQVCTSDLETSDCSNSIVPFTSVLDHLSYFGINTGLCT | 30 | 37 | 31 | 33 | 16 | 39 | 43 | 15 | 39 | 37 | 35 | 37 | the most efficient enzymes | preferred sources | reasonable acidolysis activity | among the most efficient enzymes
